B1: KYK-2.0 Fab (Fab, V domains shown)
VH: QVQLVESGGGLVKPGGSLRLSCAASGFTFSSYGMHWVRQAPGKGLEWVAFIRYDGSNKYYADSVKGRFTISRDNSKNTKYLQMNSLRAEDTAVYYCAKDRGLGDGTYFDYWGQGTTVTVSS
VL: QSALTQPASVSGSPGQSITISCSGSSSNIGNNAVNWYQQLPGKAPKLLIYYDDLLPSGVSDRFSGSKSGTSAFLAISGLQSEDEADYYCAAWDDSLNGPVFGGGTKLTVL
notes: Human Fab (lambda) with human constant domains and a C-terminal (His)6 tag, expressed in E. coli from pC3C-His and purified by IMAC
B2: KYK-1.0 Fab (Fab, V domains shown)
VH: EVQLVESGGGVVQPGGSLRLSCAASGFTFSSYGMHWVRQAPGKGLEWVAFIRYDGSNKYYADSVKGRFTISRDNSKNTKYLQMNSLRAEDTAVYYCAKDRFGYYLDYWGQGTLVTVSS
VL: QPVLTQPSSVSVAPGETARIPCGGDDIETKSVHWYQQKPGQAPVLVIYDDDDRPSGIPERFFGSNSGNTATLSISRVEAGDEADYYCQVWDDNNDEWVFGGGTQLTVL
notes: Human Fab with human constant domains (lambda light chain) and a C-terminal (His)6 tag, expressed in E. coli from pC3C-His and purified by IMAC

Target: T1, tetanus toxoid (UniProt P04958 2-1315)
T1 construct: also called TT
Experiment: ELISA, 100 ng protein coated per well, anti-human Fab-HRP detection

T1 sequence (P04958 2-457 limits assumed, chain 1 of 2): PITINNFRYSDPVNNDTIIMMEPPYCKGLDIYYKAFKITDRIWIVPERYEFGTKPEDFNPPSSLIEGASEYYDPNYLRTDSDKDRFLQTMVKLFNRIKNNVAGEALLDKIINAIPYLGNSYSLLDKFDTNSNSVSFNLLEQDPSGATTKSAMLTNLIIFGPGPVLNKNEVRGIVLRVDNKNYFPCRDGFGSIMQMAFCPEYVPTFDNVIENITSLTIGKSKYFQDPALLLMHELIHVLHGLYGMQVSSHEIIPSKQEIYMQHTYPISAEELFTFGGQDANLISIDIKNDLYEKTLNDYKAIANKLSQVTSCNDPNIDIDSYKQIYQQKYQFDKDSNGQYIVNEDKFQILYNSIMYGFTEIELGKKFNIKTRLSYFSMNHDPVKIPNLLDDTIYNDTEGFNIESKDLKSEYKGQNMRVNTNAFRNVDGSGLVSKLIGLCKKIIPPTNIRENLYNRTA
T1 sequence (P04958 458-1315 limits assumed, chain 2 of 2): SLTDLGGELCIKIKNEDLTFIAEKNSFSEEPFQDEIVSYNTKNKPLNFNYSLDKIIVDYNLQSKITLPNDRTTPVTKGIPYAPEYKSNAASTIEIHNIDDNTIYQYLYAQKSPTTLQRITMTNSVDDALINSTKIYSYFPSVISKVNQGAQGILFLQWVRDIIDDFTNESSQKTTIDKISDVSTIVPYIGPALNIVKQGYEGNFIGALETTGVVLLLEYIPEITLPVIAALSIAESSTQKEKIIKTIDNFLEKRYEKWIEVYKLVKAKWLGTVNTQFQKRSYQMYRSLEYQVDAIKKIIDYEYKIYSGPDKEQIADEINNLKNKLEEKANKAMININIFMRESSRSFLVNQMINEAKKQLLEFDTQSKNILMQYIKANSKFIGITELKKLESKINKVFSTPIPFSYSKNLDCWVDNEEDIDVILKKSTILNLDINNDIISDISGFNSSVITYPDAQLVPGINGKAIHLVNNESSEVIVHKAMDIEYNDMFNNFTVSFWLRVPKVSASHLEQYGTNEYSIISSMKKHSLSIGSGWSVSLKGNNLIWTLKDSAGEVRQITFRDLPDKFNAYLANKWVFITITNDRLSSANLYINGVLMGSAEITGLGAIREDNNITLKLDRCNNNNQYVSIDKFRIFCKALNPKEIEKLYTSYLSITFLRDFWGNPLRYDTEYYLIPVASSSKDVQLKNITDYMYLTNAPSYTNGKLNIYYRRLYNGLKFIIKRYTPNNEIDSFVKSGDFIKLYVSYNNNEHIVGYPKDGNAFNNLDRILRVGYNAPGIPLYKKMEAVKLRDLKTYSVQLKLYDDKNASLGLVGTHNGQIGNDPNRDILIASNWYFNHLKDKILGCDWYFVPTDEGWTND

Row | Binder | binding result
1 | B1 | no binding
2 | B2 | no binding

— patent US20110150870A1 (UNITED STATES OF AMERICA AS REPRESENTED BY TH, published 2011)
